# According to the DeepSol protein solubility set:
# Assay: soluble on expression in E. coli; label from the status in PepcDB or PDB records
row,Sequence,soluble on expression in E. coli
1,MSLNNVKLLIAGSAFFAMSAQAADRVSIDVKVTLEAAACTPILSNGGVVNFGSHSVNRLSTQHYTQIGTRNINMTITCESATGIAITARDTRMDSMTTGKDSGGQSGVKYTLNGGGYISQTTRLFGLGKTKDNKNIGSYAVLIDSNNISASNGSQTLAVSIAGADAVITGQKRAWQTLTAYPLAVDQSYYYTFVKPGETTPTPVTNAIIPLQVSASIANDLGGSEKIELDGKAVISVVYLEGHHHHHH,not soluble
2,MSLNPASPFATLTDRIDWQKVDGLVPAIVQDFQSSQVLMMGYMNPEALQKTLDTQQVTFFSRSKQRLWTKGETSGHVLQLKNIALDCDQDTLLVKVNPIGPTCHTGTVTCWDGDAQEESQMVWLHQLEQLLAERKNADPSSSYTASLYARGTKRIAQKVGEEGVEVALAATAGDKEELICESADLMYHLLVLLQEQGLAMNDVINKLKERHKEGHHHHHH,soluble
3,MSLNPSGKYQVKILGIEDYQALTACQSACPLGTDTKRYVRAITEGDYEKAFLIARQTNPLVSVCSRVCTAPCEKSCRKGEQGHPVDIRALKRFACDKHGVTSPRAVAGRLEEISRQNGGVGDRTGNHILTMAAVQKAGAAATSRKPAPRVAIIGSGPTGLSAAHDLALLGYGVTIFEAAPYAGGMLRTGIPAFRLPKDVLQQEIDAILNLGVELKLNSPIGEDLTLADLKAQGYESVFITIGLQDPLRILNIEGTDLAGIYSGVEYVRDHEKIRLGKRCLVIGGGGVAIDCAQHAVRQGAEQVMIACLESWETMPASLTEREDAQEEGIVFHPALGPRRFMGHNGHVARAEFLQVSSVFDSEGRFAPTFVPDSTTTLEVDSVILAVGQASTAPSLAGLAGLDLTPNGLIKAAEDMSTNLPGVFAGGDVRWRFTRNATDAIADGQKAARAIHGYLSGHTPQVIRKGFMRPVSPDFENTRCDTIAPVPIPKRDAGERVRTKEEITIGFGEAEAREQAARCRRCNIQTVFERSRCLRCGTCVDTCVNGALRIVRLADIQGDEDVAKLTDALKKSAQTRSKAMTAIIKDESRCASCGMCARRCPGGAITMAEFYCQEEWEEGHHHHHH,soluble
4,MSLNRDQSDLHIDELLADPFGGNIEIPGSEAVKAEKEQVRLVDVLPEENKEKAIQLAGQIDHKNMQSIVLYGSQAQSKLLNFSHDMINHVQKKDVGEIGEILGELMKKLEQVNPDDLQSKKKGFLARMFGRVSSSLQEVLSKYQKTSVQIDRISLKLEHSKNALISDNKLLEQLYEKNKEYFAALNVYIAAGELKLEELKTKTIPELKQQAESSDHNQMAVQEVNDLIQFADRLDKRVHDLLLSRQITIQSAPQIRLIQNTNQALAEKIQSSIVTAIPLWKNQVAIALTLLRQRNAVDAQQKVSDTTNELLLKNAELLKTNTIETARANERGLVDIDTLKKVQESLISTLEETLTIQEEGRIKRRQAEEELMMMEGDLKQKLITIKEREGHHHHHH,soluble
5,MSLNRKHETVSEFVRHLPCENCGSSDANSIYTDNHQYCFACEHYVHGDGETPTTGGRTKRMEGLISGEFKPLMKRKLTLETCRKFGYFVSEVRGRLVQVAPYFDNSGVMVAQKLRDQDKGFAILGDGAKLTLFGQNLWASGGKKIVVTEGELDAMSVSQVQNNKWPVVSLPNGAPAARKAIQRNIEYLESFEEVILMFDMDEPGREAAQECAELFSPGKCKIATLSMKDANELLVAGREQEIVTAIWNAKLYRPDGVVNVRDLLEEIRKALVMGLPWFLDPLTQLTYGRRYGEVYGLGAGTGVGKTDFLTQQIAYDIQVLGERVGTIFLEQKPTETAKRVAGKIAGKRFHVPKDTAGWTDEELDAAVDALGENLVMYDAFGETEWDIVKRKVRYMAVSEGIKLIYIDHLTAMADTADEKGSLEQIMKEMAGLANELGIIITFISHLTTPEGKPHEEGGRVTIRHFKGSRAIGFWSYFMFGLERDQQAEDPVVRQTTTFRILKDRCTGQATGEVLYLAYDRDTGLLSLTEAPEPSSPFKDESEGHHHHHH,soluble
6,MSLNRNHPANGWPLALLLAATLALHGCNEPTAATAAPANTTRHGDYTPLTVQHKLGTTVISQLPQRTVALDMNEVDFLDQLGVPVAGMPKDFVPDFLARYKDAGQTADVGSIVQPNLERVHAARPDLILITSLQANHYDELSEMAPTLHFDVDYRDSETGHVAMVRQHLLSLGQVFGKQGLAQRKADALEAKLAQARSVTRDRPERALVVLHNNGAFSAFGVQSRYGFIFNDLGVKPATTTLDTGLHGQPISSEFIQQANPDILYVVDRTAVMEHRPMMTADTLDNPLLRQTNAWKHGRVVFVDPQAWYVTAASPTSLALIADDVIRGYQDEGHHHHHH,soluble
7,MSLNSMKDAFNREIDYVRLSLTDRCDLRCTYCMPATGLCFLKKEQLLTDDEIIFLLRILAKEDIKKVKLTGGEPLVRPNLLSLIKRIKQISGIEKVTLTTNGMKLAREAQGLKEAGLDGINISLDTLDPEEFREITRVGQLRNVLAGLEQAIDVGLPNIKINTVARKELSEATIVELAEIAKKETVHLRFIEMMPIGLGKEHPGKQQEEVEAILTKYYGTLQPYQKPLGNGPASYYALKDFKGKIGFISALGHCFCETCNRIRITADGHLKTCLHSADGYSLKEALAMEQTAELLGIIKSGIACKPEKHLFLEQQGEQRFMSQIGGEGHHHHHH,not soluble
8,MSLNVLSVSSEIYPLIKTGGLADVVGALPIALEAHGVRTRTLIPGYPAVKAAVTDPVKCFEFTDLLGEKADLLEVQHERLDLLILDAPAYYERSGGPYLGQTGKDYPDNWKRFAALSLAAARIGAGVLPGWRPDMVHAHDWQAAMTPVYMRYAETPEIPSLLTIHNIAFQGQFGANIFSKLALPAHAFGMEGIEYYNDVSFLKGGLQTATALSTVSPSYAEEILTAEFGMGLEGVIGSRAHVLHGIVNGIDADVWNPATDHLIHDNYSAANLKNRALNKKAVAEHFRIDDDGSPLFCVISRLTWQKGIDLMAEAVDEIVSLGGRLVVLGAGDVALEGALLAAASRHHGRVGVAIGYNEPLSHLMQAGCDAIIIPSRFEPCGLTQLYALRYGCIPVVARTGGLADTVIDANHAALASKAATGVQFSPVTLDGLKQAIRRTVRYYHDPKLWTQMQKLGMKSDVSWEKSAGLYAALYSQLISKGHEGHHHHHH,soluble
9,MSLPMSLTIKLFLMFLLIESSIAKQKPDLDHVNVDMSEIDYSSFFKQMIEGWEREANEKYPFRPDLNNDDSSYFLQSRDQVYVNRSFFVQGKAQAYIRQWNNWKPYRDLGNKIGVLWPTQDNDCPKIEAMNPLTYMIHGLSRRYNILPLLK,soluble
10,MSLQEIKGLSFYHQDWEVYCSNTGTCRAAGYQSDDGSQQPASILLTREAGSKQPVQAEFALAGDDQETFAANKIKNIRFYVNGKDLGTVSVKGVDSPLMGKLSTAQVNGLLQQATQKVDIVFKNNHYVWKISDSGMTAALLKVDDFQKRIGTVGALVKKGKSDDSKVLMPQPKLVIKKVKTADQPYLTLNPKNKQYASLYKLLMAAQPTPKEDGFCEGVYDFDSDAITAQSIELYKLTNNKVLATTLCWRGAYNEGYGAWVLNQSLTGPATYITQSASDIASGIISSAQKGRGIGDCWMSQSWIWNGQKYVQNQDMWTGMCKGLAAGGVWELDQIEAVVKEGHHHHHH,soluble
11,MSLQHNGHSYTVEGLINDSTLNGQTLYISRYDDGMKVDSTQVTNGQFKFTGKADIPCFCRIDAGREYANFILEGGNIQVNVLTHNDPKGTPMNEEYTHISDKTSELVTELRKRHAAIEQQTEDKSEQLRLKKEYADTYWHPTYTRLYKDMFMKNPDNALGEFAIRELAMCALPEEMDTIFAASGPWLKSLSVYHRIEKQFQGMKATAVGQKFTDFSGKTIDGAASSLSDFVGKGQYTLVDFWASWCGPCRSESPHIAELYNTYKDKGLTVLGVAVWDKPENTKKAIKELNIDWPQIIDTGMTPMDLYGVKGIPFILLFGPDGTIIARDLRGEGMKNKVAEVLNNKEGHHHHHH,soluble
12,MSLQKFSDEQRSQIETIIKEYLVSHPEVLEEASEELGKRQAAAQAEKHQQAIKDNADIIYNSPRGVTVGNKNGDVTMVEFFDYNCGYCKRAMTDMMELMKDDPNLKVVLKEFPVLGPPSVEAAQVAIAVRMQDPTGKKYLDFHQKLLGGRGQADKARALAAAKDAGLDPAKIEKDMNSPEVRATIEESFKLAESMGMNGTPSYVIGKQVVVGAVGLDTLRQKINTARCGKDKCEGHHHHHH,soluble
13,MSLQMERRGISALPLHYGHPPEYLFKRAVKLSGIMAEIIVDTYGQGELIRRLADPFWFHSLSLVTGFDWNSSGTTVFTLSALKEYLSTRDLGVKVCGGKASAMADMRADLLSSVETGILKEDDKEYVYENARRIAKIDNSLLQDGYDLYMQFVVVSDRGRHAVIQQGMNSEDRMARRYHWLIGNERVDVEGRYGLSADKTSLNVLDLSATESRDNRSAIVASVREGEVWRFRSGAQSTLDNFSLPFLDLSGRVNWKKLRDLYEYGVDDFEKIYMEKGIGKSTLRALSYIAEVIYGPKASFRDPVKFSFAVGGKDGIPKPVNTYDYDRAIEFFSDLIREKDLNVREKETIARSLAHLSQMKTNFYSEGHHHHHH,soluble
14,MSLQNTVPSETPSPATPSPTSTVNLSDVSSDYWARPFIQAMADNNVIAGFPDGSFRPNQAVTRAEFAALIQKAFPNQNRVRQLSAGGFRDVPAGYWAISPIQYAYETGFLAGYPGNVFSPNQQIPKVQAIVAMTSGLGLTASNTGASTDLSTYYTDASSIPQYAIASVTTATQSNIVVNYPDVKQMNPQQPLTRAEVAALLYQALAKQGRVQPIASNLPASQYIVGGTEGHHHHHH,soluble
15,MSLQRGAGQYFAGKRCFVTGAASGIGRATALRLAAQGAELYLTDRDRDGLAQTVCDARALGAQVPEHRVLDVSDYQDVAAFAADIHARHPSMDVVLNIAGVSAWGTVDQLTHDQWSRMVAINLMGPIHVIETLVPPMVAAGRGGHLVNVSSAAGLVGLPWHAAYSASKYGLRGLSEVLRFDLARHGIGVSVVVPGAVKTPLVNTVEIAGVDRDDPRVNRWVERFSGHAVTPEKAADKILAGVTRNRYLVYTSADIRALYAFKRYAWWPYTLVMRRVNVFFTRALRPGEGHHHHHH,soluble
16,MSLQSYADALSAKGYRSFGFDTDMEMDMDMGCTTMRRIEKRKGGDLADSPVDEKAEADVEVTNEISAPYEVPQFPIEQIEKKLQIQRHLNEKQATGPRPVATAAVLATNRESSSSTEGRESAVTMERNDADINFQRVSISGEDTSGVPLEDLERASTLLIEALRLRSHYMAMSDQSFPSTTARFLKTVKLKDRINNLPVKEVSESADVHLRHSPMKITNPWNVEFPNDEDFKIKPLNGVFHIYENDDESSEIKYEYPDMSQFVNDMQVMCNMIADGPLKSFCYRRLCYLSSKYQMHVLLNELRELAAQKAVPHRDFYNTRKVDTHIHAASCMNQKHLLRFIKKTLKNNANEVVTVTNGQQMTLAQVFQSMNLTTYDLTVDMLDVHADRNTFHRFDKFNSKYNPIGESRLREVFLKTDNYLNGKYFAQIIKEVAFDLEESKYQNAELRLSIYGKSPDEWYKLAKWAIDNDVYSSNIRWLIQIPRLFDIFKSNKMMKSFQEILNNIFLPLFEATARPSKHPELHRFLQYVIGFDSVDDESKPENPLFDNDVPRPEEWTYEENPPYAYYIYYMYANMTVLNKFRQSRNMNTFVLRPHCGEAGPVQHLVCGFLMAENISHGLLLRKVPVLQYLYYLTQIGIAMSPLSNNSLFLNYHRNPLPEYLARGLIISLSTDDPLQFHFTKEPLMEEYSIAAQVWKLSSCDMCELARNSVMMSGFPHAIKQQWLGPIYYEDGIMGNDITRTNVPEIRVAYRYETLLDELSNIFKVNQTCSIADMNATEGHHHHHH,soluble
17,MSLQVEFRECDPGNLWIWFEFAEPPVPAELEYLKEVLESWYVLGKLGGFNAERLVAQEAEVDLSYLEYPSDSAPLTSLMHNMGSLEEKGNWARCWFDLGTADALALDVLINALRTLSLEYINLSRVIIGGQNEDWPTPDPEETDVYDDLNGYLRDHWGEEGEGHHHHHH,soluble
